Experimental data published in article PMC4720564 (Chemical communications (Cambridge, England), 2016).

Tests used:
[1] = biological target: WelP1 (Hapalosiphon welwitschii, UniProt A0A067YVH5); assay: LC-MS product formation; type: biochemical; conditions: co-substrate GPP; MgCl2 5 mM; Tris 50 mM pH 8.0
[2] = tested on: [C-]#[N+]/C=C\c1c[nH]c2ccccc12; assay: purified protein; type: biochemical, Fischerella ambigua; conditions: co-substrate GPP, MgCl2 10 mM, pH 8.0

Molecule | LC-MS product formation [1] | Km [2] [µM] | kcat [2] [s⁻¹]
[C-]#[N+]/C=C\c1c[nH]c2ccccc12 [(Z)-1, cis-indolyl vinyl isonitrile] | The enzymatic products derived from WelP1 and FidP1 are perfectly identical to that from AmbP1 |  | 
AmbP1 (Fischerella ambigua UTEX 1903) |  | 15.4 ± 3.2 | 6.9 ± 1.2
